Experimental data from the DeepSol protein solubility set.

Test: soluble on expression in E. coli; label from the status in PepcDB or PDB records

Row | Sequence | soluble on expression in E. coli
1 | TLSRDDAAQVAKVLSEALPYIRRFVGKTLVIKYGGNAMESEELKAGFARDVVLMKAVGINPVVVHGGGPQIGDLLKRLSIESHFIDGMRVTDAATMDVVEMVLGGQVNKDIVNLINRHGGSAIGLTGKDAELIRAKKLTVTRQTPEMTKPEIIDIGHVGEVTGVNVGLLNMLVKGDFIPVIAPIGVGSNGESYNINADLVAGKVAEALKAEKLMLLTNIAGLMDKQGQVLTGLSTEQVNELIADGTIYGGMLPKIRCALEAVQGGVTSAHIIDGRVPNAVLLEIFTDSGVGTLISNRKRH | soluble
2 | MPEKKPVTAENSVGIDLGIEKFAILSDGIAVENPRFIKRVEKRIKKLQKQISRKKKGSKNYEKQKIRIQKKYRKLRNLRDDFHDKVSTAIAKRYDTIFIEDLNVRGMQRNHHLARSITDVSFYSFKEKLKWKADRYGKNLIEIGRFDPSSKLCSRCGNIKKDLKLSDRVYSCDACGLTIDRDYNASLDIRKIGLVKVGLVPPEFTPVEIATSGLDGIYPYRQMSVGESGRSEASAEELEHHHHHH | not soluble
3 | MSLKTNKLINKSFRFKQFSIEEGTCGMPISTDGVLLGSWAFSLSPTTILDIGCGTGLLSLMCAQRFPHAHITALDIEQTAYLAAEHNRQQSPWAERIECQHADILHWQPSKRFAAIICNPPYFNSGETAQHQVRATARHTISLQHQALIERLPQLLEPDGVASFILPKAEGEDFIALARQAGLFVGRYCQVQPTTDKPVHRLLFELHLSPCLPVETRLVIREQQGYSEAFCQLTRDFYLKMSEGHHHHHH | soluble
4 | MILDADYITEDGKPVIRVFKKEKGEFKIDYDRDFEPYIYALLKDDSAIEDIKKITAERHGTTVRVTRAERVKKKFLGRPVEVWKLYFTHPQDVPAIRDKIREHPAVVDIYEYDIPFAKRYLIDRGLIPMEGDEELRMLAFDIETLYHEGEEFGEGPILMISYADEEGARVITWKNIDLPYVESVSTEKEMIKRFLKVIQEKDPDVLITYNGDNFDFAYLKKRSEMLGVKFILGRDGSEPKIQRMGDRFAVEVKGRIHFDLYPVIRRTINLPTYTLETVYEPVFGQPKEKVYAEEIARAWESGEGLERVARYSMEDAKATYELGKEFFPMEAQLSRLVGQSLWDVSRSSTGNLVEWFLLRKAYERNDVAPNKPDERELARRTESYAGGYVKEPEKGLWENIVYLDYKSLYPSIIITHNVSPDTLNREGCREYDVAPQVGHRFCKDFPGFIPSLLGDLLEERQKVKKKMKATVDPIERKLLDYRQRAIKILANSYYGYYAYANARWYCRECAESVTAWGRQYIETTMREIEEKFGFKVLYADTDGFFATIPGADAETVKNKAKEFLNYINPRLPGLLELEYEGFYRRGFFVTKKKYAVIDEEDKITTRGLEIVRRDWSEIAKETQARVLEAILKHGDVEEAVRIVKEVTEKLSRHEVPPEKLVIYEQITRDLRSYRATGPHVAVAKRLAARGIKIRPGTVISYIVLKGPGRVGDRAIPFDEFDPAKHRYDAEYYIENQVLPAVERILRAFGYRKEDLRYQKTKQAGLGAWLKPKT | soluble
5 | SDEINAQSVWSEEISSNYPLCIKNLMEGLKKNHHLRYYGRQQLSLFLKGIGLSADEALKFWSEAFTNMTMEKFNKEYRYSFRHNYGLEGNRINYKPWDCHTILSKPRPGRGDYHGCPFRDWSHERLSAELRSMKLTQAQIISVLDSCQKGEYTIACTKVFEMTHNSASADLEIGEQTHIAHPNLYFERSRQLQK | soluble
6 | MSVTVFIPGDSAALAVGANRVAEAIAREAASRNLDVQIVRNGSRGMLWLEVLVEVRTEHGRIAYGPVKAADVTSLFDADFLDGGDHRLCLGPTKDIPFLKNQTRLTFARCGVTDPLSLEDYRNYQGMKGLEKAVTMEPLAIVAQVTESGLRGRGGAGFPTGIKWKTVADARADQKYIVCNADEGDSGTFADRMIMEGDPFVLIEGMAIAGLAVGATKGFIYTRSEYPYAIKVMEKAIEIARREGILGSSVLGSGRAFDMEVRMGAGAYVCGEETSLLNSLEGKRGTVRAKPPLPALQGLFGKPTVVNNVISLASIPVIMDRGAAFYRDFGVGRSHGTIPIQLAGNIRYGGLYETAFGLTLGQLVNDIGGGTITGRPVKAVQVGGPLGAYFPVSLFDTIFDYEAFTAAGGLIGHAGIVVFDDTADMLHQARFALEFCAVESCGKCTPCRIGSTRGVETVDKIALGIEREKNTALLEDLCETMKFGSLCALGGFTPYPVMSALRHFPQDFAPIPRVEAAEAAALEHHHHHH | not soluble
7 | MGSDKIHHHHHHMELGIIYSGEFGKRFVSNLAYPYLCPTFGACGINGCDYCKRYDFSSSIVYAKELAEPQEIGLYVEEPESYLEPFECDIAVAINVHPDILVSLPEIGEFKALIVPACNQNWCLPGLRKQLAEKCGELGIEFASPKPFCSLTGNSGWISRFIDEFKIGRPEFRVERGGDAIKKVEVIKSDPCGSAYFVAKRMTGYIIESKEDFWKEIHQHQCAYPCMASMDRDVELKEAPFHLAGYIMVYQFSTAAGVEAEEFVPEHFREIVCRAR | not soluble
8 | MEERILFSQKTTIFVPVDNDSRIKPMSKDSLCAQHTDCSGCPKAMESTLIHRNLLRGQHIPKDKCTQNCMLFMIEGELLINSDEHPGTTLHEKQFILQAIGSKYEILALTDVSYILFWFNELPLLCENRYREIIDQAEGPLTYTPMVMNPRLFYLINDVAAYLDESTPACGKYIDLKCQEMVYMITNYYPLPQLRAFFYPISTYTESFQYFVMQNYSKAKNVEEFAHLGGYNTTTFRRLFRNLYGVPVYEWMLEKKREGILEDLQHSNMRITEICNRYGFDSLSHLAHFCKDSFGDTPRALRKKAANGEKIGKITD | not soluble
9 | SMANHLVKPDNRNCKRPRELESPVPDSPQLSSLGKSDSSFSEISGLFYKDEALEKDLNDVSKEINLMLSTYAKLLSERAAVDASYIDEIDELFKEANAIENFLIQKREFLRQRFTVIANTLHR | soluble
10 | MGSDKIHHHHHHLIIDANIYWLPNEIFVSEEMTNHFLRVVPREYGVYAYQREKNKNEREFVIEKPEGSENLNYFQGDYDLSVQLENMDQAGVDTGVMKLPGCQEWLDLDLCIQFNNQMAETVKKSKGRFRALAVVPPSGDADTLRELKRCIKELHMNGLQLSAHYGNKYLDDPMFRPLLKCASDLNIPVYVHHTPVPVEYNSLADYNNLRRSYGRCEDQTIAVTREIFSGMFKELPNLKMIHSMLGGGYFAYKNMFFPNDSGHGRFDANTSDVARSLKDNIYFEMSHAQPWGKAELKCAVEVLGADHIIYGSSYPVKKDWLIGGPQYVGDLPISQDEKDMLLFKNAERIYGIK | not soluble
11 | MTDIAKLEPTAVWEHFQTLCDIPRPSKHEEQVRDYMKGWAELRGLETVVDKVGNLIIRKPATPGYEDRAGVVLQGHLDMVCQANSGTEHDFFKDPIRPVLKDGWLVAENTTLGADNGIGVALGMAVLSGDDVAHGPVEVLLTLDEEAGMGGALGLETGLLRGQYLINIDTEEWGEFYMGCAGGVDVNVTREYAVEAVPAGFQTASLTIKGLKGGHSGADIHLGRGNANKILIRLLRELEAETELRLSSLQGGTARNALSREAFAVVAYPTADAAKVAAKLDAFQALMRFELAGVDEGVSVLSEAAPAAGVLARADQDVILAALHAAPHGVKRMSQRVEGVVETSNNLGVVSVADGKVFANLMVRSLLDSGTWMLAREAESLFKLAAFKVEMEGGYPGWAPNPQSKLLALFKDVYRREFGAEAEVQVIHAGLECGILGSKYPNLDMVSFGPNIRGAHAPGERVEVESVGKAWQLLQAVLKAIPARLEHHHHHH | soluble
12 | MSFRVSASSSVKPEKDIRIGLLGASGYTGAEIVRLLANHPHFQVTLMTADRKAGQSMESVFPHLRAQKLPTLVSVKDADFSTVDAVFCCLPHGTTQEIIKELPTALKIVDLSADFRLRNIAEYEEWYGQPHKAVELQKEVVYGLTEILREDIKKARLVANPGCYPTTIQLPLVPLLKANLIKHENIIIDAKSGVSGAGRGAKEANLYSEIAEGISSYGVTRHRHVPEIEQGLSDVAQSKVTVSFTPHLMPMIRGMQSTIYVEMAPGVRTEDLHQQLKTSYEDEEFVKVLDEGVVPRTHNVRGSNYCHMSVFPDRIPGRAIIISVIDNLVKGASGQALQNLNIMLGYPETTGLLHQPLFP | soluble
13 | MGCAQSTPVDQPARQQPQATQQKSVEPAVVKKPVEPARVEPKVEVPSTKPSEVPHVEKAQSINRGQPGDGSGPLQQPSPAMPGAKQGGTKERRAAAGSEAVRDQIRKLAVGGPQAKEEKEKIYEVSDSEDEELEDDPSERTTLSGDWYKPQEVTDAILEALKRNFVFKGIPQNHLVEVVGRMYGISFKSGAVVLQQGALPKQDDCMYYLQQGEAEVVISGGADASKNHGEERKVDGHTVRIPQKPGWLFGDVALLFHSPRTASVVAKTNITVWAMDRRTFLKFVMKHAQGARALRFLRKLPLLKGLSDNDLIRAASRMPQRMYEDGQPLIRIGERGDELFLIRYGKVRVFRPDGNGGRVEVAVLGRGQFVGERAVINDKLRSADCVAQGQVQVVVLKKREFMDLDNPLLAWMLDYDAVSAVIRSLPQFKGLKQEQMENILDRFDAREELMQGDTILNQGDMLEKLYVVKIGEIALFRNDERVEDPNFVHEIAGFSYFGETAITQTGKCPYTIRVASESLHLLSLPKRQVDSFMGRDTGLKNEEAVVAALKKSKFLANMTDPEFKELLKACEQTDYNPGEVIAVANSSVTNKIFLVKSGEVMVVAADLALPDTGEVDVRKLTGSERQRLLAGSIFNDKALNSPETASLEASLVAGTPCGIITFTTSDVERVMGGRAMSRSRNAMPGAAAAVEERKFPRVKFTELEFHRIIGTGQFGLVRVVRNIKTNEVYALKVMHKAPIVESKQIEHVINERKILEEACTHPFCVRLCGAYQDKASLYLLQEWVPGGELFHHLDVEGAFDEPTAMFYAANVLLALEFLHAKGIVYRDLKPENLLLDTQGYIKMADFGFAKYIGGDKTYTICGTPDYQAPEVIMRRGTTKAADYWALGVLIFEMLVGDPPFKSLTGDPWDTFRRTLSGRFYVPNFISDQAADLIFKLLQVNPDKRLGSDKRLGAEEIKRHRWFSRIDWRALEQKKLPSPFRPRVRNPLDTSNFDNFDNVDLEPPPVPADRAEKHSQQWELWDWIDDSK | not soluble
14 | MSLLAGVKLEKRDKTLVDATEALAGKAVGFYFSAHWCPPCRGFTPILKDFYEEVEDEFEVVFVSFDRSESDLKMYMSEHGDWYHIPYGNDAIKELSTKYGVSGIPALIIVKPDGTEVTKDGRNDVQNGKDPKATVAKWKA | not soluble
15 | MGHHHHHHGGHMSLKNYFLQRRTLMTEQLPNCPECGSAYAYEDRGLFICPECGHEWSPTEEVAEEGLVVKDSNGNLLADGDSVTVIKDLKVKGASGAIKQGTKVKNIRLVEGDHNIDCKVDGFGPMKLKSEFVKKNEGGS | soluble
16 | MCGRFAQSQTREDYLALLAEDIERDIPYDPEPIGRYNVAPGTKVLLLSERDEHLHLDPVFWGYAPGWWDKPPLINARVETAATSRMFKPLWQHGRAICFADGWFEWKKEGDKKQPFFIYRADGQPIFMAAIGSTPFERGDEAEGFLIVTAAADQGLVDIHDRRPLVLSPEAAREWMRQEISGKEASEIAASGCVPANQFSWHPVSRAVGNVKTRARSLEHHHHHH | not soluble
17 | MGSDKIHHHHHHMPEQQKSVTGTSLFERYTLSQAYDEMFTAEGDIRPAYSELARLLCSISPAELQQRQRYADLTFLNQGITFTVYGNDAGVERVFPYDLLPRIIAADEWQHIERGLHQRIVALNLFLHDVYHNENILRDGIIPRHLVYSCRHYRREMRGLTVPRGVYTAIVGTDLVRLPDGQFVVLEDNLRVPSGVSYMLTNRAVMKRALPRLFGAYGVRPIDHYGQALLATLRALAPAHRPEPTIVLLTPGVFNSAYFEHTFLARQMGIELVEGRDLLVHNNIVYMRTTKGLQRVDVIYRRIDDDFLDPMIFRPDSVLGVPGLFNAYRAGTVVLANAIGTGVADDKAIYAYVPDIIRYYLGEEPILPNVTTYLCDRPDECAYVLEHLGDLVVKAVGESGGYDMLIGPHSTREEQAQFAERIRAQPRNYIAQPTLQLSQAPCFIDGVIEPRHVDLRPFVLFDGERTTIVPGGLTRVALRRGSLVVNSSQGGGSKDTWVLY | not soluble
